Data set [1] deals with the molecule itself. Briefly: thioflavin T fluorescence.
Data set [2] deals with the molecule itself. Briefly: solution NMR, decay of monomer signals over time.

Substitutions are numbered along the chain they refer to. Names and notes keep the numbering of the source.

B1: human RIPK1 RHIM-harboring domain (residues 496-583), wild type (domain or fragment, UniProt Q13546 496-583, looked up)
chain: HMPSLHNIPVPETNYLGNTPTMPFSSLPPTDESIKYTIYNSTGIQIGAYNYMEIGGTSSSLLDSTNTNFKEEPAAKYQAIFDNTTSLT
With B1, the binding result in data set [1] was “binds”.

B2: human RIPK1 RHIM-harboring domain (residues 496-583), N545D variant (domain or fragment, UniProt Q13546 496-583, looked up)
chain: B1 chain with N50D
For B2, in data set [2], the binding result is reported as “binds”.

(Values after paper PMC12575786 (Nature communications, 2025).)
